Assay results as given in the supplement of paper PMC9112550, “Optimization of the antimicrobial peptide Bac7 by deep mutational scanning” (BMC Biology, 2022).

These sequences were tested on Escherichia coli TOP10 (assay: shrunken log2 fold change of peptide-encoding DNA abundance (4.5 h post-induction vs induction); higher = less antimicrobial activity (less host growth inhibition)). Settings: time post-induction: 4.5 h; library: site-saturation at positions 5, 18, 19, 20.
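Note: peptides expressed intracellularly from a pBAD plasmid library in pooled LB shake-flask culture, induced with 0.3% L-arabinose, DNA abundance read by NGS, three biological replicates, DESeq2 with apeglm shrinkage.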

Sequence | shrunken log2 fold change
RRIRFRPPRLPRPRPRPCIDPRP | 0.255
RRIRHRPPRLPRPRPRPDWVPRP | -0.0196
RRIRTRPPRLPRPRPRPFCEPRP | -0.0463
RRIRYRPPRLPRPRPRPSETPRP | -0.523
RRIRRRPPRLPRPRPRPQLIPRP | -0.0726
RRIRMRPPRLPRPRPRPMISPRP | -0.0256
RRIRCRPPRLPRPRPRPAGYPRP | -0.342
RRIRNRPPRLPRPRPRPDSNPRP | -0.0886
RRIRWRPPRLPRPRPRPDEEPRP | 0.215
RRIRIRPPRLPRPRPRPKYNPRP | -1.01
RRIRARPPRLPRPRPRPRRVPRP | 1.36
RRIRRRPPRLPRPRPRPGQAPRP | 0.0103
RRIRHRPPRLPRPRPRPKYSPRP | -0.489
RRIRARPPRLPRPRPRPYMWPRP | -0.927
RRIRNRPPRLPRPRPRPYWPPRP | -0.199
RRIRSRPPRLPRPRPRPNTAPRP | -0.0399
RRIRSRPPRLPRPRPRPHIMPRP | -0.393
RRIRIRPPRLPRPRPRPRFFPRP | -0.123
RRIRVRPPRLPRPRPRPSNDPRP | -0.244
RRIRCRPPRLPRPRPRPPFFPRP | 0.449
RRIRKRPPRLPRPRPRPQYTPRP | -0.156
RRIRQRPPRLPRPRPRPVLAPRP | 0.232
RRIRNRPPRLPRPRPRPTRGPRP | 0.725
RRIRCRPPRLPRPRPRPLKEPRP | 0.244
RRIRCRPPRLPRPRPRPGVRPRP | 0.32

Sequence | shrunken log2 fold change
RRIRTRPPRLPRPRPRPVKAPRP | 0.0375
RRIRMRPPRLPRPRPRPNGKPRP | 0.321
RRIRQRPPRLPRPRPRPQMCPRP | 0.109
RRIRTRPPRLPRPRPRPFMPPRP | -0.618
RRIRKRPPRLPRPRPRPNTWPRP | 0.0309
RRIRFRPPRLPRPRPRPKAYPRP | -0.436
RRIRHRPPRLPRPRPRPLENPRP | 0.00854
RRIRVRPPRLPRPRPRPHWQPRP | -0.024
RRIRMRPPRLPRPRPRPWENPRP | -0.0294
RRIRFRPPRLPRPRPRPWHPPRP | -0.409
RRIRSRPPRLPRPRPRPWMSPRP | 0.132
RRIRYRPPRLPRPRPRPNNPPRP | -0.359
RRIRERPPRLPRPRPRPPWIPRP | -0.042
RRIRERPPRLPRPRPRPYAYPRP | -0.000687
RRIRYRPPRLPRPRPRPCIAPRP | -0.148
RRIRLRPPRLPRPRPRPLQRPRP | 0.0926
RRIRHRPPRLPRPRPRPDWAPRP | -0.0995
RRIRTRPPRLPRPRPRPQSCPRP | 0.057
RRIRVRPPRLPRPRPRPWMSPRP | -0.076
RRIRSRPPRLPRPRPRPYKQPRP | -0.62
RRIRCRPPRLPRPRPRPQHDPRP | -0.219
RRIRARPPRLPRPRPRPQKWPRP | 0.301
RRIRIRPPRLPRPRPRPKMCPRP | 0.168
RRIRPRPPRLPRPRPRPYRFPRP | -0.261
RRIRYRPPRLPRPRPRPMVPPRP | -0.909

Sequence | shrunken log2 fold change
RRIRSRPPRLPRPRPRPKGLPRP | -0.0223
RRIRSRPPRLPRPRPRPHNYPRP | -0.372
RRIRTRPPRLPRPRPRPMLAPRP | 0.306
RRIRLRPPRLPRPRPRPEMSPRP | -0.0316
RRIRWRPPRLPRPRPRPWMKPRP | -0.225
RRIRPRPPRLPRPRPRPLNCPRP | -0.227
RRIRERPPRLPRPRPRPGWNPRP | 0.277
RRIRMRPPRLPRPRPRPADPPRP | 0.36
RRIRMRPPRLPRPRPRPTLLPRP | 0.2
RRIRWRPPRLPRPRPRPVVGPRP | 0.738
RRIRQRPPRLPRPRPRPAHAPRP | 0.0691
RRIRMRPPRLPRPRPRPPLPPRP | 0.879
RRIRKRPPRLPRPRPRPPCIPRP | -0.141
RRIRNRPPRLPRPRPRPMEGPRP | -0.00992
RRIRHRPPRLPRPRPRPEIIPRP | -0.496
RRIRERPPRLPRPRPRPDNFPRP | 0.00707
RRIRWRPPRLPRPRPRPVKDPRP | -0.0234
RRIRLRPPRLPRPRPRPSCNPRP | -0.661
RRIRGRPPRLPRPRPRPHYSPRP | -0.661
RRIRRRPPRLPRPRPRPVTTPRP | 0.48
RRIRPRPPRLPRPRPRPLVRPRP | 0.138
RRIRCRPPRLPRPRPRPVLKPRP | 0.181
RRIRERPPRLPRPRPRPVKDPRP | -0.189
RRIRIRPPRLPRPRPRPHSFPRP | -0.643
RRIRSRPPRLPRPRPRPIRFPRP | -0.964
